For experiment [1], the target named is 新冠病毒RBD抗原 (表达的RBD蛋白) (SARS-CoV-2, UniProt P0DTC2 319-541).
Experiment [2] addresses RBD-tag1 (SARS-CoV-2, UniProt P0DTC2 319-541).

B1: 23D52 (antibody, V domains shown)
VH: EVQLVESGGGLVQPGGSLRLSCAASGITVSSNYMNWVRQAPGKGLEWVSVLYSGGSTDYADSVKGRFTISRDNSKNTLYLQMNSLRAEDTAVYYCARDLVVYGMDVWGQGTTVTVSS
VL: DIQLTQSPSFLSASVGDRVTITCRASQGISSYLAWYQQTPGKAPKLLIYAASTLQSGVPSRFSGSGSGTEFTLTISSLQPEDFATYYCQQLNSYPFTFGPGTKVHIK
notes: also called 抗人新冠病毒抗体23D52
As usually defined, the EC50 is the concentration that produces a half-maximal response. A higher EC50 goes with a need for much substance. What is called IC50 is the midpoint of a concentration-inhibition curve. B1: the EC50 in experiment [1] was determined as 0.0299 µg/mL. In experiment [2], this molecule showed an IC50 of 0.111 µg/mL.
